This is an account of results in paper PMC8977243 (Journal of molecular biology, 2022).

B1: His6-ERK2 (enzyme, rat, UniProt P63086 1-358, looked up)
chain: MAAAAAAGPEMVRGQVFDVGPRYTNLSYIGEGAYGMVCSAYDNLNKVRVAIKKISPFEHQTYCQRTLREIKILLRFRHENIIGINDIIRAPTIEQMKDVYIVQDLMETDLYKLLKTQHLSNDHICYFLYQILRGLKYIHSANVLHRDLKPSNLLLNTTCDLKICDFGLARVADPDHDHTGFLTEYVATRWYRAPEIMLNSKGYTKSIDIWSVGCILAEMLSNRPIFPGKHYLDQLNHILGILGSPSQEDLNCIINLKARNYLLSLPHKNKVPWNRLFPNADSKALDLLDKMLTFNPHKRIEVEQALAHPYLEQYYDPSDEPIAEAPFKFDMELDDLPKEKLKELIFEETARFQPGYRS

One test deals with MBP-arrestin-2 (bovine, UniProt P17870 1-418). The experiment in a line: pull-down.
In the test “His6-ERK2” the target is B1. Put plainly: peptide or protein array.

For B1, the binding result with MBP-arrestin-2 was “binds”. As for CKVYTLTPFLANNRE [arrestin-2-derived peptide CKVYTLTPFLANNRE], the binding result with His6-ERK2 is reported as “binds”.
